Data taken from the supplement of paper PMC10567573.
± gives the standard deviation.

Assay: protein stability index of a GFP-peptide fusion (GPS, HEK-293T) (PSI 1-6); higher = more stable
[1] = treatment: DMSO, c terminus: a fixed tail appended
[2] = treatment: MLN4924 1 uM, 8 h, c terminus: a fixed tail appended
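Also: 24-mer peptide tiles fused after GFP, lentivirally expressed, FACS-sorted into six equal bins by GFP/DsRed ratio, decoded by Illumina sequencing, PSI is the read-weighted mean bin number.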

Sequence | protein stability index [1] | protein stability index [2] | protein stability index (treatment: DMSO, c terminus: native) | protein stability index (treatment: MLN4924 1 uM, 8 h, c terminus: native)
PENGEIKPASKPAGSSHTPSSQSS [ELOA2] | 5.43 ± 0.25 | 5.62 ± 0.067 | – | –
PENLLLASKCKGAAVKLADFGLAI [CAMK2B] | 2.33 ± 0.31 | 2.56 ± 0.44 | – | –
PERLCSGPGIVGNVLVDPSARIGQ [GMPPB] | 3.92 ± 0.27 | 3.89 ± 0.22 | – | –
PESLNSPVSGKAVFMEFGPPNQQM [DLX1] | 3.79 ± 0.33 | 3.92 ± 0.26 | – | –
PFGFQTVTSDVNKLSSFYSLKLIK [SERPINB5] | 2.15 ± 0.17 | 2.31 ± 0.41 | – | –
PFTPLHIKVKPKRVGIFLDYEAGT [TRIM39] | 2.45 ± 0.28 | 2.67 ± 0.26 | – | –
PGGNVKGVWAPPAPGFGEDVPNRL [BEX5] | 3.95 ± 0.18 | 4.16 ± 0.23 | – | –
PGHSGVSCEEVAASSASLEPMWSG [EMID1] | – | 5.08 ± 0.08 | – | –
PGRDRVGREDEDGWETRGDRKARK [HES6] | 5.49 ± 0.26 | 5.48 ± 0.17 | – | –
PGTPPSYSSRTPGTPGTPSYPRTP [MAP2] | 4.72 ± 0.39 | 4.55 ± 0.34 | – | –
PGVQAPEDLEWERYRGRGSEEYRA [CHGB] | 4.8 ± 0.17 | 5.18 ± 0.63 | – | –
PHYICTLKQPHLLLEKYSYYLISG [PNLIPRP1] | 2.78 ± 0.81 | 2.74 ± 0.69 | – | –
PIFQDSQDTEVFSWSDNERSSSRI [FAM104B] | 4.34 ± 0.55 | 4.41 ± 0.26 | – | –
PIYGLRQSILLNTRLQDCYVDSPA [C22orf31] | 2.69 ± 0.2 | 2.55 ± 0.38 | – | –
PKQSGSFRYLQGMLEAGEGGDWPG [PDLIM4] | 3.79 ± 0.34 | 3.96 ± 0.15 | – | –
PKTPMDGADCGIQWWNAVFIMLLI [LYSMD4] | 2.5 ± 0.62 | 2.39 ± 0.41 | – | –
PLAVEEDASSSTSTSSSFPSSFPS [MAGEA10] | 5.31 ± 0.23 | 5.41 ± 0.12 | – | –
PLGVDESLFSYGLRESIASYLSLT [SLA] | 2.03 ± 0.19 | 2.3 ± 0.13 | – | –
PLHHQTQRFRLDNLLNMAYGVKSP [ELAVL3] | 2.5 ± 0.34 | 2.63 ± 0.27 | – | –
PLKAQNDLDISRIKRGNTTLESTD [P2RY14] | 5 ± 0.11 | 5.24 ± 0.24 | – | –
PLMPGMPPVMPGMPPGLHHQRKYT [ZNF207] | 3.91 ± 0.39 | 4.11 ± 0.18 | – | –
PLPPPPPAFKSMEVANFYYEADCL [CEBPB] | 3.9 ± 0.31 | 3.62 ± 0.33 | – | –

Sequence | protein stability index [1] | protein stability index [2] | protein stability index (treatment: DMSO, c terminus: native) | protein stability index (treatment: MLN4924 1 uM, 8 h, c terminus: native)
PLTGDKDDEEVDTHFASQEFFSAN [ADAMTSL2] | 5.37 ± 0.11 | 5.45 ± 0.19 | – | –
PMPLAPTRSHLWEAAQVVPDGLGL [TRIB3] | 3.48 ± 0.32 | 3.34 ± 0.23 | – | –
PPHVLISRPSAPFTEASMMMSLTK [ESR2] | 3.48 ± 0.084 | 3.44 ± 0.18 | – | –
PPTYPTKYFGCELGAQTQFDVKND [EIF5] | 4.35 ± 0.17 | 4.494 ± 0.038 | – | –
PQEAVLQQLHQLPRGRLDLATQSL [LRRC45] | 3.75 ± 0.15 | 3.74 ± 0.21 | – | –
PQRPRSAPRTSSCAERLQSEEQVS [FCHO1] | 4.85 ± 0.39 | 4.9 ± 0.24 | – | –
PRELASMSLVLHGNNLLVFGGTGI [KLHDC10] | 2.46 ± 0.71 | 2.45 ± 0.59 | – | –
PRGSHSSALERLETKLHLLRQEMV [LURAP1L] | 2.53 ± 0.33 | 2.69 ± 0.27 | – | –
PRLVSETAERKQEQKTGTEAEAAD [MFSD9] | 5.77 ± 0.12 | 5.61 ± 0.25 | – | –
PRVRELLLDALSPEQLVLTLLEAE [ESR2] | 2.22 ± 0.22 | 2.22 ± 0.26 | – | –
PSGFLQISDALIRRVHLTEDQWGK [TRIM9] | 2.84 ± 0.25 | 2.59 ± 0.24 | – | –
PSLGDSLESIPSLSQSPEPGRRGD [RTN2] | 5.32 ± 0.45 | 5.48 ± 0.12 | – | –
PSTTPPAHSSSNTIRSGISPNLNV [SASS6] | 4.29 ± 0.33 | 4.44 ± 0.28 | – | –
PSVEQAADSLDFDETFLATSFLQH [FOXJ1] | 4.43 ± 0.18 | 4.41 ± 0.4 | – | –
PSVPPTIKEEENSEEELAAATTSK [MYBL2] | 5.52 ± 0.53 | 5.56 ± 0.4 | – | –
PTKDRLEGLLAFKEKRPPRYKGE [AUH] | – | – | 2.11 ± 0.31 | 4.4 ± 0.1
PTMPQPIEKVSVSTQTKKLSASSP [ZMYND11] | 5.28 ± 0.18 | 5.24 ± 0.25 | – | –
PTPANEERRGGLPPLPLHPGGDQG [WAS] | 5.38 ± 0.22 | 5.39 ± 0.065 | – | –
PTQGPETPRSPEGTTEAATQDGKE [PXN] | 5.62 ± 0.19 | 5.48 ± 0.22 | – | –
PVLEDNYMYLVIEELTREAVAVDV [HAGHL] | 2.34 ± 0.57 | 2.47 ± 0.17 | – | –
PVQGSSEDNLSLVCLPRSEDDDCD [DRICH1] | 5.62 ± 0.2 | 5.53 ± 0.21 | – | –
PWARGCGMFTFLSSVTAAVSGLLV [SLC2A12] | 2.54 ± 0.3 | 2.57 ± 0.21 | – | –

Sequence | protein stability index [1] | protein stability index [2] | protein stability index (treatment: DMSO, c terminus: native) | protein stability index (treatment: MLN4924 1 uM, 8 h, c terminus: native)
PWTKEEDQKVIELVKKYGTKQWTL [MYBL2] | 2.61 ± 0.24 | 2.72 ± 0.16 | – | –
QACSLPASCCIDPREDGASVNDQC [TSPAN10] | 5.06 ± 0.27 | 5.11 ± 0.25 | – | –
QAGPEATTSDPQDLDMKKHRCKCC [PALM] | 5.06 ± 0.3 | 5.17 ± 0.11 | – | –
QAQPAIPRPNRLFLRQLRASHLGN [C2CD2L] | 3.09 ± 0.33 | 3.08 ± 0.27 | – | –
QASKLRASKEEKEDWLSHALSRKK [FBF1] | 4.5 ± 0.24 | 4.54 ± 0.26 | – | –
QDFPVKKRKKLSTWKQELLKLMDR [ZNF75A] | 2.5 ± 0.11 | 2.53 ± 0.17 | – | –
QDIERGVQSEIFLHESYCMDTSHQ [LYSMD4] | 4.24 ± 0.15 | 4.25 ± 0.14 | – | –
QDLLDVIRIKLDPCHPTVKNWRNF [EDARADD] | 2.27 ± 0.75 | 2.35 ± 0.34 | – | –
QEKKLSFIEALIQQYQEQLDKSTK [TRIM63] | 2.82 ± 0.19 | 3.11 ± 0.5 | – | –
QFNVSGPGLLEEDNQWMTQINRLQ [NECAB1] | 3.02 ± 0.13 | 3.31 ± 0.19 | – | –
QGIFVEKYDPTIEDSYRKQVEVDA [RAP1B] | 4.72 ± 0.11 | 4.44 ± 0.12 | – | –
QGIGSKIIKKVAEVALDKGCSQFR [SAT2] | 2.44 ± 0.68 | 2.27 ± 0.36 | – | –
QGLIRAGKVEAQHILASAPTDRNL [PYCR3] | 3.96 ± 0.16 | 4.07 ± 0.4 | – | –
QGSPAVDKERFTTLVQDLANAFQQ [CHIT1] | 3.13 ± 0.25 | 3.48 ± 0.22 | – | –
QHAVQELTKAATSGVGIDGEVLSY [RHOBTB1] | 4.5 ± 0.25 | 4.57 ± 0.14 | – | –
QILDSLSYMRNENVISELNIEDYF [FBXO39] | 2.32 ± 0.29 | 2.2 ± 0.12 | – | –
QILKDTKSITSAMNELQHDLDVVS [TPH1] | 3.82 ± 0.24 | 3.97 ± 0.092 | – | –
QIPTQNTQARQVMEREFNNLLALG [PPFIA4] | 3.56 ± 0.12 | 3.37 ± 0.21 | – | –
QKHYVYGPLPQSFDKEWVAKQTKR [COX4I1] | 3.55 ± 0.41 | 3.7 ± 0.28 | – | –
QKNGGGAYLVPYLVLLIIIGIPLF [SLC6A17] | 2.37 ± 0.061 | 2.83 ± 1.5 | – | –
QKRLKSKLLDHDNVKYLKKILDEL [GDAP1] | 2.1 ± 0.24 | 2.19 ± 0.22 | – | –
